# Measured values as given in IntAct's records for PubMed 23598340.
# B1: Ktr system potassium uptake protein B (Bacillus subtilis), O32081 (parent)
# chain: MTLQKDKVIKWVRFTPPQVLAIGFFLTIIIGAVLLMLPISTTKPLSWIDALFTAASATTVTGLAVVDTGTQFTVFGQTVIMGLIQIGGLGFMTFAVLIVMILGKKIGLKERMLVQEALNQPTIGGVIGLVKVLFLFSISIELIAALILSIRLVPQYGWSSGLFASLFHAISAFNNAGFSLWPDNLMSYVGDPTVNLVITFLFITGGIGFTVLFDVMKNRRFKTFSLHTKLMLTGTLMLNAIAMLTVFILEYSNPGTLGHLHIVDKLWASYFQAVTPRTAGFNSLDFGSMREGTIVFTLLLMFIGAGSASTASGIKLTTFIVILTSVIAYLRGKKETVIFRRSIKYPIIIKALAVSVTSLFIVFLGIFALTITEQAPFLQIVFETFSAFGTVGLTMGLTPELTTAGKCIIIVIMFIGRIGPLTFVFSFAKTEQSNIRYPDGEVFTG
# partner: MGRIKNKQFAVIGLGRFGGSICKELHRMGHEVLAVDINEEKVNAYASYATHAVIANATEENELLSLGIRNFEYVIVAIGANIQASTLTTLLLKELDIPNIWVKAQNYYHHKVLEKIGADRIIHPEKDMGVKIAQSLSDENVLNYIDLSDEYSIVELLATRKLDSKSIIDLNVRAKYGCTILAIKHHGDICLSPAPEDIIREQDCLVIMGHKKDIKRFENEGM
# Variants of: B1
# Details: with ktra_bacsu ktrA
row,Variant,effect of a mutation on the interaction
1,MTLQKDKVIKWVRFTPPQVLAIGFFLTIIIGAVLLMLPISTTKPLSWIDALFTAASATTVTGLAVVDTGTQFTVFGQTVIMGLIQIGGLGFMTFAVLIVMILGKKIGAKERMLVQEALNQPTIGGVIGLVKVLFLFSISIELIAALILSIRLVPQYGWSSGLFASLFHAISAFNNAGFSLWPDNLMSYVGDPTVNLVITFLFITGGIGFTVLFDVMKNRRFKTFSLHTKLMLTGTLMLNAIAMLTVFILEYSNPGTLGHLHIVDKLWASYFQAVTPRTAGFNSLDFGSMREGTIVFTLLLMFIGAGSASTASGIKLTTFIVILTSVIAYLRGKKETVIFRRSIKYPIIIKALAVSVTSLFIVFLGIFALTITEQAPFLQIVFETFSAFGTVGLTMGLTPELTTAGKCIIIVIMFIGRIGPLTFVFSFAKTEQSNIRYPDGEVFTG [L108A],decreasing interaction strength
